The values below come from PMC2845979 (Nature, 2009).

The series deals with the molecule itself. Put plainly: crystal structure.

B1: minimal functional chicken ASIC1 construct (cASIC1mfc) (domain or fragment, UniProt Q1XA76 2-466, looked up)
chain: MDLKVDEEEVDSGQPVSIQAFASSSTLHGISHIFSYERLSLKRVVWALCFMGSLALLALVCTNRIQYYFLYPHVTKLDEVAATRLTFPAVTFCNLNEFRFSRVTKNDLYHAGELLALLNNRYEIPDTQTADEKQLEILQDKANFRNFKPKPFNMLEFYDRAGHDIREMLLSCFFRGEQCSPEDFKVVFTRYGKCYTFNAGQDGKPRLITMKGGTGNGLEIMLDIQQDEYLPVWGETDETSFEAGIKVQIHSQDEPPLIDQLGFGVAPGFQTFVSCQEQRLIYLPPPWGDCKATTGDSEFYDTYSITACRIDCETRYLVENCNCRMVHMPGDAPYCTPEQYKECADPALDFLVEKDNEYCVCEMPCNVTRYGKELSMVKIPSKASAKYLAKKYNKSEQYIGENILVLDIFFEALNYETIEQKKAYEVAGLLGDIGGQMGLFIGASILTVLELFDYAYEVIKHRLCR
Take B1: the “stoichiometry N” value was found to be 3.

As usually defined, the stoichiometry N is the number of molecules, sites or subunits per partner or assembly.
